Source: patent US20170058008A1 (SYNGENTA PARTICIPATIONS, published 2017)

Columns and labels:
[1] = biological target: ATP synthase α from S. frugiperda (native) (S. frugiperda); experiment: cell-based or functional assay
[2] = biological target: ATP synthase β from S. frugiperda (native) (S. frugiperda); experiment: cell-based or functional assay
[3] = biological target: Hsc70 from S. frugiperda (native) (S. frugiperda); experiment: cell-based or functional assay
[4] = biological target: ATP synthase α + β of Sf9 cells (native, both silenced together) (S. frugiperda); experiment: cell-based or functional assay
[5] = biological target: Hsc70 and serpin, co-expressed in Drosophila S2 cells (S. frugiperda; M. sexta) (UniProt Q9U639); experiment: cell-based or functional assay
[6] = biological target: Hsc70, cadherin from M. sexta, and aminopeptidase-N (APN) from M. sexta, co-expressed in Drosophila S2 cells (S. frugiperda; M. sexta); experiment: cell-based or functional assay
[7] = biological target: cell surface displayed serpin from M. sexta (yeast display, pYD1) (M. sexta); experiment: biopanning of a yeast surface-displayed M. sexta cDNA library with biotinylated trypsinized Vip3A; none out of twenty clones in the control without bVip3A/T
[8] = biological target: T1, V5-tagged Cry1Ab (UniProt P0A370 29-607, limits assumed); experiment: fluorescent confocal microscopy, co-localization on transfected Sf9 cells
T1 construct: not shown: V5 tag

[9] = biological target: biotin labeled Cry1Ab (UniProt P0A370 29-607, biotin labeled (sites not given)); experiment: Far-Western blot, V5-enriched protein on PVDF probed with biotin labeled Cry1Ab

Vip3A gave a Mortality (%) Day 2, FAW larvae pretreated with dsRNA for the target, Vip3A at 100 ng/cm^2 [1] of 12.5%, a Mortality (%) Day 6, FAW larvae pretreated with dsRNA for the target, Vip3A at 100 ng/cm^2 [1] of 12.5% and a Mortality (%) Day 10, FAW larvae pretreated with dsRNA for the target, Vip3A at 100 ng/cm^2 [1] of 37.5%. For the same molecule, the Mortality (%) Day 2, FAW larvae pretreated with dsRNA for the target, Vip3A at 100 ng/cm^2 [2] was 0%, the Mortality (%) Day 6, FAW larvae pretreated with dsRNA for the target, Vip3A at 100 ng/cm^2 [2] was 15.4% and the Mortality (%) Day 10, FAW larvae pretreated with dsRNA for the target, Vip3A at 100 ng/cm^2 [2] was 53.9%. The Mortality (%) Day 2, FAW larvae pretreated with dsRNA for the target, Vip3A at 100 ng/cm^2 [3] was 0%, the Mortality (%) Day 6, FAW larvae pretreated with dsRNA for the target, Vip3A at 100 ng/cm^2 [3] was 0% and the Mortality (%) Day 10, FAW larvae pretreated with dsRNA for the target, Vip3A at 100 ng/cm^2 [3] was 6.25%.

Work on trypsinized Vip3A yielded a percent reduction of cell viability, Sf9 cells with the target silenced by dsRNA, 200 nM trypsinized Vip3A (GFP dsRNA control 30.055) [4] of 0.986%, a percent reduction of cell viability, Sf9 cells with the target silenced by dsRNA, 200 nM trypsinized Vip3A (GFP dsRNA control 30.055) [1] of 0.99% and a percent reduction of cell viability, Sf9 cells with the target silenced by dsRNA, 200 nM trypsinized Vip3A (GFP dsRNA control 30.055) [2] of 22.7%. For the same molecule, the % of dead cells, co-transfected S2 cells, 0 nM Vip3A [5] was 1.5%, the % of dead cells, co-transfected S2 cells, 25 nM Vip3A [5] was 6% and the % of dead cells, co-transfected S2 cells, 50 nM Vip3A [5] was 17%. It also gave a % of dead cells, co-transfected S2 cells, 100 nM Vip3A [5] of 34%, a % of dead cells, co-transfected S2 cells, 200 nM Vip3A [5] of 64% and a % of dead cells, co-transfected S2 cells, 400 nM Vip3A [5] of 81%. For the same molecule, the % of dead cells, co-transfected S2 cells, 800 nM Vip3A [5] was 96%, the percent reduction of cell viability, Sf9 cells with the target silenced by dsRNA, 200 nM trypsinized Vip3A (GFP dsRNA control 30.055) [3] was 17.1% and the % of dead cells, co-transfected S2 cells, 0 nM Vip3A [6] was 4%. The % of dead cells, co-transfected S2 cells, 25 nM Vip3A [6] was 3%, the % of dead cells, co-transfected S2 cells, 50 nM Vip3A [6] was 7% and the % of dead cells, co-transfected S2 cells, 100 nM Vip3A [6] was 6%. It also gave a % of dead cells, co-transfected S2 cells, 200 nM Vip3A [6] of 9%, a % of dead cells, co-transfected S2 cells, 400 nM Vip3A [6] of 10% and a % of dead cells, co-transfected S2 cells, 800 nM Vip3A [6] of 8%. For the same molecule, the share of sequenced clones carrying the serpin gene after seven rounds of selection [7] was 45%.

B1: ATP synthase α from S. frugiperda, V5/6xHis-tagged (pIZT/V5-His) (other, not shown: small tags and cut ends)
chain: MSLISARIAGSVARRLPNAASQVSKVAGVAAPAVAVASRNFHVSPTQKAAEISTILEERILGAAPKADLEETGRVLSIGDGIARVYGLKNIQAEEMVEFSSGLKGMALNLEPDNVGVVVFGNDKLIKEGDIVKRTGAIVDVPVGEQLLGRVVDALGNAIDGKGPIDTKSRMRVGIKAPGIIPRVSVREPMQTGIKAVDSLVPIGRGQRELIIGDRQTGKTALAIDTIINQQRFNKGQDEKKKLYCIYVAIGQKRSTVAQIVKRLTDAGAINYTIIVSRTASDAAPLQYLAPYSGCAMGEFFRDNGKHALIIYDDLSKQAVAYRQMSLLLRRPPGREAYPGDVFYLHSRLLERAAKMSDKMGGGSLTALPVIETQAGDVSAYIPTNVISITDGQIFLETELFYKGIRPAINVGLSVSRVGSAAQTKAMKQVAGSMKLELAQYREVAAFAQFGSDLDAATQQLLNRGMRLTELLKQGQYVPMAIEEQVAIIYCGVRGHLDKLDPSKITGFEKEFTQHIKTSHQGLLATIAKDGQITPESDAALKKIVTDFLATFTQSQ
notes: Expressed in Sf9 cells
B1: no binding (tested: 200 nM) [8]; no binding [9].
